B1: VEGF-DΔNΔC [human] / Recombinant human VEGFR-3-Fc chimera [human] (parent complex)
chain 1: FYDIETLKVIDEEWQRTQCSPRETCVEVASELGKSTNTFFKPPCVNVFRCGGCCNEESLICMNTSTSYISKQLFEISVPLTSVPELVPVKVANHTGCKCLPTAPRHPYS
chain 2: YSMTPPTLNITEESHVIDTGDSLSISCRGQHPLEWAWPGAQEAPATGDKDSEDTGVVRDCEGTDARPYCKVLLLHEVHANDTGSYVCYYKYIKARIEGTTAASSYVFVRDFEQPFINKPDTLLVNRKDAMWVPCLVSIPGLNVTLRSQSSVLWPDGQEVVWDDRRGMLVSTPLLHDALYLQCETTWGDQDFLSNPFLVHITGNELYDIQLLPRKSLELLVGEKLVLNCTVWAEFNSGVTFDWDYPGKQAERGKWVPERRSQQTHTELSSILTIHNVSQHDLGSYVCKANNGIQRFRESTEVIVHENPFISVEWLKGPILEATAGDELVKLPVKLAAYPPPEFQWYKDGKALSGRHSPHALVLKEVTEASTGTYTLALWNSAAGLRRNISLELVVNVPPQIHEKEASSPSIYSRHSRQALTCTAYGVPLPLSIQWHWRPWTPCKMFAQRSLRRRQQQDLMPQCRDWRAVTTQDAVNPIESLDTWTEFVEGKNKTVSKLVIQNANVSAMYKCVVSNKVGQDERLIYFYVTTIPDGFTIESKPSEELLEGQPVLLSCQADSYKYEHLRWYRLNLSTLHDAHGNPLLLDCKNVHLFATPLAASLEEVAPGARHATLSLSIPRVAPEHEGHYVCEVQDRRSHDKHCHKKYLSVQALEAPRLTQNLTDLLVNVSDSLEMQCLVAGAHAPSIVWYKDERLLEEKSGVDLADSNQKLSIQRVREEDAGRYLCSVCNAKGCVNSSASVAVEGSEDKGSME
B2: VEGF-DΔNΔC [human] / Recombinant human VEGFR-2-Fc chimera [human] (parent complex)
chain 1: B1 chain 1
chain 2: ASVGLPSVSLDLPRLSIQKDILTIKANTTLQITCRGQRDLDWLWPNNQSGSEQRVEVTECSDGLFCKTLTIPKVIGNDTGAYKCFYRETDLASVIYVYVQDYRSPFIASVSDQHGVVYITENKNKTVVIPCLGSISNLNVSLCARYPEKRFVPDGNRISWDSKKGFTIPSYMISYAGMVFCEAKINDESYQSIMYIVVVVGYRIYDVVLSPSHGIELSVGEKLVLNCTARTELNVGIDFNWEYPSSKHQHKKLVNRDLKTQSGSEMKKFLSTLTIDGVTRSDQGLYTCAASSGLMTKKNSTFVRVHEKPFVAFGSGMESLVEATVGERVRIPAKYLGYPPPEIKWYKNGIPLESNHTIKAGHVLTIMEVSERDTGNYTVILTNPISKEKQSHVVSLVVYVPPQIGEKSLISPVDSYQYGTTQTLTCTVYAIPPPHHIHWYWQLEEECANEPSQAVSVTNPYPCEEWRSVEDFQGGNKIEVNKNQFALIEGKNKTVSTLVIQAANVSALYKCEAVNKVGRGERVISFHVTRGPEITLQPDMQPTEQESVSLWCTADRSTFENLTWYKLGPQPLPIHVGELPTPVCKNLDTLWKLNATMFSNSTNDILIMELKNASLQDQGDYVCLAQDRKTKKRHCVVRQLTVLERVAPTITGNLENQTTSIGESIEVSCTASGNPPPQIMWFKDNETLVEDSGIVLKDGNRNLTIRRVRKEDEGLYTCQACSVLGCAKVEAFFIIEGAQEKTNLE

Variants of: B1
Assay: ELISA; The same amount of each VEGF-DΔNΔC variant was used; assays conducted three times; parent: 100; read off a plot

| percent of parent | Variant |
| --- | --- |
| ~13% | chain 1 E13A |
| ~99% | chain 1 E5A |
| ~100% | chain 1 R16A |
| ~87% | chain 1 K8A |
| ~72% | chain 1 W14A |
| ~99% | chain 1 I4A |
| ~160% | chain 1 D11A |
| ~100% | chain 1 V9A |
| ~96% | chain 1 D3A |
| ~3% | chain 1 L7A |
| ~72% | chain 1 F1A |
| ~23% | chain 1 Y2A |
| ~100% | chain 1 E12A |
| ~97% | chain 1 T6A |
| ~110% | chain 1 Q15A |
| ~9% | chain 1 I10A |

Variants of: B2
Assay: as above

| percent of parent | Variant |
| --- | --- |
| ~95% | chain 1 D3A |
| ~100% | chain 1 E12A |
| ~86% | chain 1 Y2A |
| ~14% | chain 1 E13A |
| ~20% | chain 1 I10A |
| ~110% | chain 1 Q15A |
| ~99% | chain 1 E5A |
| ~19% | chain 1 L7A |
| ~88% | chain 1 K8A |
| ~89% | chain 1 F1A |
| ~100% | chain 1 I4A |
| ~100% | chain 1 T6A |
| ~62% | chain 1 W14A |
| ~110% | chain 1 R16A |
| ~100% | chain 1 D11A |
| ~110% | chain 1 V9A |
